Assay results taken from patent US20250270304A1.

What was measured:
Test in all cases: ELISA, coated antigen, OD450
[1] = molecular target: Mature Activin A (human) (UniProt P08476)
[2] = molecular target: T1, Activin B (Homo sapiens (Human)) (UniProt P09529)
T1 sequence: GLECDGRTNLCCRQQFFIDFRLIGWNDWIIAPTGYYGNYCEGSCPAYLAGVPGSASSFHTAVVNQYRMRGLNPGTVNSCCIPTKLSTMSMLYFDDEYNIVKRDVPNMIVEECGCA

[3] = molecular target: T2, Inhibin A (Homo sapiens (Human)) (UniProt P05111)
T2 sequence 1: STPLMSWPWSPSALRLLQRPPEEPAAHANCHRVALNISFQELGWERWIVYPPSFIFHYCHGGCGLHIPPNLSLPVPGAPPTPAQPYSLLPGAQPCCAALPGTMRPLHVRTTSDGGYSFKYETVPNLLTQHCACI
T2 sequence 2: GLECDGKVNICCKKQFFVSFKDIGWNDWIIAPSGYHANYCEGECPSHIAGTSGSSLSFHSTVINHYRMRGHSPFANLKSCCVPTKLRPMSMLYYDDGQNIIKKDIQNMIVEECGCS

B1: AB330 (antibody, IgG1, V domains shown)
VH: QVQLVQSGAEVKKPGASVKVSCKVSGYPSPATISWVRQAPGKGLEWMGWMNPKSGYTNYAQKFQGRVTMTEDTSTDTAYMELSSLKSEDTAVYYCATLHGSGLAFDIWGQGTMVTVSS
VL: DIQMTQSPSSVSASVGDRVTITCRASQDIKSDLAWYQQKPGKAPKLLIYRASARESGVPSRFSGSGSGTDFTLTISSLQPEDFANYYCQQYRSFPWSFGGGTKVEIK
Q: B1 was tested. Which fold-change of OD 450 over negative control (BSA) [1] did it give?
A: Its fold-change of OD 450 over negative control (BSA) is 1.39 fold.

B2: AB439 (antibody, IgG1, V domains shown)
VH: EVQLVQSGAEVKKPGASVKVSCKASGYTYTGYRISWVRQAPGQGLEWMGWIDPKSGRTNYAQKLQGRGTMTTDPSTSTAYMELRSLRSDDTAVYYCAREVKQWLVPGRGVYWFDPWGQGTLVTVSS
VL: ESALTQPASVSGSPGQSITISCTGTNIGLRSVSWYQQHPGKAPKLMIYDTNIRSSGVSNRFSGSKSGNTASLTISGLQAEDEADYYCSSYTSSSTDVFGGGTKLTVL
Q: B2 was tested. Which fold-change of OD 450 over negative control (BSA) [2] did it give?
A: The fold-change of OD 450 over negative control (BSA) was 1.17 fold.

Q: What about the fold-change of OD 450 over negative control (BSA) [3] of the same binder?
A: Its fold-change of OD 450 over negative control (BSA) is 1.38 fold.
